Patent US20150125849A1

Assays:
[1] = molecular target: GFP with His-tag at the C-extreme (pETsa-GFP-his) [GFP: P42212]; test: detection of diluted antigen with 5 µg purified IgG (data not shown)
[2] = molecular target: GFP with His-tag at the N-extreme (pETsa-his-GFP) [GFP: P42212]; test: as above

## His-tag MAb (Invitrogen, Carlsbad, USA) (antibody)
[1]
  antigen dilution at which detected: 32 × dilution
[2]
  antigen dilution at which detected: 32 × dilution
